{
  "source": "patent US20220347268A1",
  "about": "(MEDICENNA THERAPEUTICS, published 2022)",
  "key": {"[1]": {"molecular_target": "T1, IL-13Rα1", "T1 construct": "also called IL13Ra1", "T1 chain": "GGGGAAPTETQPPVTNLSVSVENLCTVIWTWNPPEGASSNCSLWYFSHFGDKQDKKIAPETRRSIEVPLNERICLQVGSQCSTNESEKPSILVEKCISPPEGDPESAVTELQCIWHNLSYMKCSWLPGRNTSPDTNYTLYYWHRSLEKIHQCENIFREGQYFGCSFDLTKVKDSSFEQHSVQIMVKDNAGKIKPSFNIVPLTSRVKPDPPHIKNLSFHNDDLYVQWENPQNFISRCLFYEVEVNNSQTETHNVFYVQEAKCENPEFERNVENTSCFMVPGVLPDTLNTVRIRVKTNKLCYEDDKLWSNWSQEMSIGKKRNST", "test": "SPR, kinetic (column K1)"}, "[2]": {"molecular_target": "T1, IL-13Rα1", "test": "SPR, kinetic (column K-1)"}, "[3]": {"molecular_target": "T1, IL-13Rα1", "test": "SPR, column KD (eq)"}, "[4]": {"molecular_target": "T2, IL-13Rα2", "T2 construct": "also called IL13Ra2; CD213A2", "T2 chain": "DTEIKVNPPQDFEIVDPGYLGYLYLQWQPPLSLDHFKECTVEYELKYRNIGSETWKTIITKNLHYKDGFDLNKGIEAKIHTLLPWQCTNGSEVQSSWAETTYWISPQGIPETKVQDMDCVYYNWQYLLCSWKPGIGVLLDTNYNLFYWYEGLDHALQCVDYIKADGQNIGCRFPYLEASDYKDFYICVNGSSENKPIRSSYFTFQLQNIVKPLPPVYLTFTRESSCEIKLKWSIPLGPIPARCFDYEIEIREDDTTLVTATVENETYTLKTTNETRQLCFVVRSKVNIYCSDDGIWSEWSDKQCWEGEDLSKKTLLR", "test": "SPR, kinetic (column K1)"}, "[5]": {"molecular_target": "T2, IL-13Rα2", "test": "SPR, kinetic (column K-1)"}},
  "data": [
    {"binder": "A5 (ligand, grouped under 'IL-13Rα1 specific'; also called IL-13 variant A5) cytokine: PGPVPPSTALIELIEELINITQNQKAPLCNGSMVWSINLTAGMYCAALESLINVSGCSAIEKTQRMLSGFCPHKVSAGQFSSLHVKGSKIEVAQFVKDLLHHLRALMREGQFN", "values": [
      {"measurement": "kon", "setting": "[1]", "result": "2.8e+06", "unit": "M⁻¹ s⁻¹"},
      {"measurement": "koff", "setting": "[2]", "result": 0.0082, "unit": "s⁻¹"}
    ]},
    {"binder": "A6 (ligand, grouped under 'IL-13Rα1 specific'; also called IL-13 variant A6) cytokine: PGPVPPSTAIRELIEELLNITQNQKAPLCNGSMVWSINLTAGMYCAALESLINVSGCSAIEKTQRMLSGFCPHKVSAGQFSSLHVMKSKIEVAQFVKDLLHHLRALFREGQFN", "values": [
      {"measurement": "kon", "setting": "[1]", "result": "1.77e+06", "unit": "M⁻¹ s⁻¹"},
      {"measurement": "koff", "setting": "[2]", "result": 0.0033, "unit": "s⁻¹"}
    ]},
    {"binder": "B4 (ligand, grouped under 'IL-13Rα1 specific'; also called IL-13 variant B4) cytokine: PGPVPPSTALSELIEELINITQNQKAPLCNGSMVWSINLTAGMYCAALESLINVSGCSAIEKTQRMLSGFCPHKVSAGQFSSLHVKGSMIEVAQFVKDLLYHLRTLFREGQFN", "values": [
      {"measurement": "kon", "setting": "[1]", "result": "1.36e+06", "unit": "M⁻¹ s⁻¹"},
      {"measurement": "koff", "setting": "[2]", "result": 0.024, "unit": "s⁻¹"}
    ]},
    {"binder": "C11 (ligand, grouped under 'IL-13Rα2 specific'; also called IL-13 variant C11) cytokine: PGPVPPSTAHRELIEELVNITQNQKAPLCNGSMVWSINLTAGMYCAALESLINVSGCSAIEKTQRMLSGFCPHKVSAGQFSSLHVTGRKIEVAQFVKDLLLHLKKLFKEGQFN", "values": [
      {"measurement": "Kd", "setting": "[3]", "result": 1600, "unit": "nM"},
      {"measurement": "kon", "setting": "[4]", "result": "6.41e+06", "unit": "M⁻¹ s⁻¹"},
      {"measurement": "koff", "setting": "[5]", "result": "9.18e-07", "unit": "s⁻¹"}
    ]},
    {"binder": "C4 (ligand, grouped under 'IL-13Rα2 specific'; also called IL-13 variant C4) cytokine: PGPVPPSTAVRELIEELVNITQNQKAPLCNGSMVWSINLTAGMYCAALESLINVSGCSAIEKTQRMLSGFCPHKVSAGQFSSLHVRDTRIEVAQFVKDLLNHLKELFTEGQFN", "values": [
      {"measurement": "kon", "setting": "[4]", "result": "1.94e+06", "unit": "M⁻¹ s⁻¹"},
      {"measurement": "koff", "setting": "[5]", "result": 0.000764, "unit": "s⁻¹"}
    ]},
    {"binder": "A8 (ligand, grouped under 'IL-13Rα1 specific'; also called IL-13 variant A8) cytokine: PGPVPPSTAIRELIEELINITQNQKAPLCNGSMVWSINLTAGMYCAALESLINVSGCSAIEKTQRMLSGFCPHKVSAGQFSSLHVRSSRIEVAQFVKDLLHHLRTLFREGQFN", "values": [
      {"measurement": "kon", "setting": "[1]", "result": "1.64e+06", "unit": "M⁻¹ s⁻¹"},
      {"measurement": "koff", "setting": "[2]", "result": 0.0033, "unit": "s⁻¹"}
    ]},
    {"binder": "A11 (ligand, Grouped under 'IL-13Rα1 specific'; also called IL-13 variant A11) cytokine: PGPVPPSTAVRELIEELINITQNQKAPLCNGSMVWSINLTAGMYCAALESLINVSGCSAIEKTQRMLSGFCPHKVSAGQFSSLHVRSSKIEVAQFVKDLLFHLRTLFREGQFN", "values": [
      {"measurement": "kon", "setting": "[1]", "result": "1.64e+07", "unit": "M⁻¹ s⁻¹"},
      {"measurement": "koff", "setting": "[2]", "result": 0.0013, "unit": "s⁻¹"}
    ]},
    {"binder": "A7 (ligand, grouped under 'IL-13Rα1 specific'; also called IL-13 variant A7) cytokine: PGPVPPSTAIRELIEELINITQNQKAPLCNGSMVWSINLTAGMYCAALESLINVSGCSAIEKTQRMLSGFCPHKVSAGQFSSLHVRGSKIEVAQFVKDLLHHLRALFREGQFN", "values": [
      {"measurement": "kon", "setting": "[1]", "result": "2.9e+06", "unit": "M⁻¹ s⁻¹"},
      {"measurement": "koff", "setting": "[2]", "result": 0.0034, "unit": "s⁻¹"}
    ]},
    {"binder": "D7 (ligand, grouped under 'IL-13Rα2 specific'; also called IL-13 variant D7) cytokine: PGPVPPSTAARELIEELFNITQNQKAPLCNGSMVWSINLTAGMYCAALESLINVSGCSAIEKTQRMLSGFCPHKVSAGQFSSLHVKKTRIEVAQFVKDLLIHLRKLFKEGQFN", "values": [
      {"measurement": "kon", "setting": "[4]", "result": "1.77e+07", "unit": "M⁻¹ s⁻¹"},
      {"measurement": "koff", "setting": "[5]", "result": "5.37e-05", "unit": "s⁻¹"}
    ]},
    {"binder": "B2 (ligand, grouped under 'IL-13Rα1 specific'; also called IL-13 variant B2) cytokine: PGPVPPSTALRELIEELINITQNQKAPLCNGSMVWSINLTAGMYCAALESLINVSGCSAIEKTQRMLSGFCPHKVSAGQFSSLHVTGSKIEVAQFVKDLLYHLRALFREGQFN", "values": [
      {"measurement": "kon", "setting": "[1]", "result": "6.3e+06", "unit": "M⁻¹ s⁻¹"},
      {"measurement": "koff", "setting": "[2]", "result": 0.0017, "unit": "s⁻¹"}
    ]},
    {"binder": "B6 (ligand, grouped under 'IL-13Rα1 specific'; also called IL-13 variant B6) cytokine: PGPVPPSTATRELIEELINITQNQKAPLCNGSMVWSINLTAGMYCAALESLINVSGCSAIEKTQRMLSGFCPHKVSAGQFSSLHVRGSKIEVAQFVKDLLYHLRTLFREGQFN", "values": [
      {"measurement": "kon", "setting": "[1]", "result": "1.4e+06", "unit": "M⁻¹ s⁻¹"},
      {"measurement": "koff", "setting": "[2]", "result": 0.0082, "unit": "s⁻¹"}
    ]}
  ]
}
